# Molecular target: cleavage control protein containing an enterokinase cleavage site (Asp-Asp-Asp-Asp-Lys)
row,Protein,"cleavage of the 48 kDa control protein into 32 and 16 kDa fragments (SDS-PAGE, Coomassie; periplasmic fraction, 30 C, 24 h)"
1,periplasmically-targeted bovine enterokinase expressed with the DsbA periplasmic signal sequence (protein) IVGGSDSREGAWPWVVALYFDDQQVCGASLVSRDWLVSAAHCVYGRNMEPSKWKAVLGLHMASNLTSPQIETRLIDQIVINPHYNKRRKNNDIAMMHLEMKVNYTDYIQPICLPEENQVFPPGRICSIAGWGALIYQGSTADVLQEADVPLLSNEKCQQQMPEYNITENMVCAGYEAGGVDSCQGDSGGPLMCQENNRWLLAGVTSFGYQCALPNRPGVYARVPRFTEWIQSFLH,the periplasmically localized enterokinase is active in cleaving the target protein
2,periplasmically-targeted bovine enterokinase expressed with the MalE periplasmic signal sequence (protein) IVGGSDSREGAWPWVVALYFDDQQVCGASLVSRDWLVSAAHCVYGRNMEPSKWKAVLGLHMASNLTSPQIETRLIDQIVINPHYNKRRKNNDIAMMHLEMKVNYTDYIQPICLPEENQVFPPGRICSIAGWGALIYQGSTADVLQEADVPLLSNEKCQQQMPEYNITENMVCAGYEAGGVDSCQGDSGGPLMCQENNRWLLAGVTSFGYQCALPNRPGVYARVPRFTEWIQSFLH,the periplasmically localized enterokinase is active in cleaving the target protein
3,periplasmically-targeted bovine enterokinase expressed with the OmpA periplasmic signal sequence (protein) IVGGSDSREGAWPWVVALYFDDQQVCGASLVSRDWLVSAAHCVYGRNMEPSKWKAVLGLHMASNLTSPQIETRLIDQIVINPHYNKRRKNNDIAMMHLEMKVNYTDYIQPICLPEENQVFPPGRICSIAGWGALIYQGSTADVLQEADVPLLSNEKCQQQMPEYNITENMVCAGYEAGGVDSCQGDSGGPLMCQENNRWLLAGVTSFGYQCALPNRPGVYARVPRFTEWIQSFLH,the periplasmically localized enterokinase is active in cleaving the target protein

# Reference: patent publication US20150064751
